Stoichiometry N data for two substances are collected here from paper PMC2747663.

The target in test [1] is full-length ERBB3 (pIND/TRE-based), recombinant and overexpressed in CHO cells (human) (UniProt P21860). Description: cross-linking.
The target of test [2] is soluble extracellular domains (ECD) of ERBB3, V5 and His6 epitope-tagged (human) (UniProt P21860). Description: cross-linking.

For “full-length ERBB3 (pIND/TRE-based), recombinant and overexpressed in CHO cells (from UniProt P21860 20-1342) (receptor)”, the stoichiometry N (usually the number of molecules, sites or subunits per partner or assembly) in test [1] came to 2.

Consider “soluble extracellular domains (ECD) of ERBB3, V5 and His6 epitope-tagged (from UniProt P21860 20-643) (domain or fragment)”, for which the stoichiometry N in test [2] is 2.
